Where two headings read alike, the source gives them in different places.
T1: human FLT3 on AML5 cells (human, UniProt P36888 27-993)
T1 sequence (looked up): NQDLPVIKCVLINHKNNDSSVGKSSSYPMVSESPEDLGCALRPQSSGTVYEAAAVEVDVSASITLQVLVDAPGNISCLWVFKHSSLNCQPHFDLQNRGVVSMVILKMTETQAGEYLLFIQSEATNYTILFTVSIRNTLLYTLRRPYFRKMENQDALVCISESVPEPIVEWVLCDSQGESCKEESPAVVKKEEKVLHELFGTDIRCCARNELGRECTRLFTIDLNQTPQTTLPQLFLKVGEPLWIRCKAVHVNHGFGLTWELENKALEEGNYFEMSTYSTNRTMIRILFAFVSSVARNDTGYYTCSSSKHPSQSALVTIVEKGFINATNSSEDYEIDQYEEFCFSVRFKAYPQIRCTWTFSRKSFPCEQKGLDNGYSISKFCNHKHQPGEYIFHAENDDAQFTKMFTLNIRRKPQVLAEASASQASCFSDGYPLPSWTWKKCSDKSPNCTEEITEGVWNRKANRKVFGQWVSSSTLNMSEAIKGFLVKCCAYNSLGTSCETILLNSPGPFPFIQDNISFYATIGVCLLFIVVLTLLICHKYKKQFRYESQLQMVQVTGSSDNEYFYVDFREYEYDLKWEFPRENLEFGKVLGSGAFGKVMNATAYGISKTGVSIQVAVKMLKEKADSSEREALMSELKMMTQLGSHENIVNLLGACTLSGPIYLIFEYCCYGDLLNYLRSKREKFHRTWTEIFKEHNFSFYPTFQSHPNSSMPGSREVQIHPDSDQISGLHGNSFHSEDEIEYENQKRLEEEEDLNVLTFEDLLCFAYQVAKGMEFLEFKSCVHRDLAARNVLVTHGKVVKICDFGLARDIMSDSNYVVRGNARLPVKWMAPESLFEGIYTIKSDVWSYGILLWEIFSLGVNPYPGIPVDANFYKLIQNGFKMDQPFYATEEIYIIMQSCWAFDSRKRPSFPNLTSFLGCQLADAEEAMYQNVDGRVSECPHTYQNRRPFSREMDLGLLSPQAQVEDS


How the values were obtained:
human FLT3 on AML5 cells [1] = target: T1, human FLT3 on AML5 cells; experiment: cell-based or functional assay
human FLT3 on AML5 cells [2] = target: T1, human FLT3 on AML5 cells; experiment: cell-based or functional assay; remark: listed apart in the source
human FLT3 on AML5 cells [3] = target: T1, human FLT3 on AML5 cells; experiment: cell-based or functional assay; remark: listed apart in the source
human FLT3 on AML5 cells [4] = target: T1, human FLT3 on AML5 cells; experiment: cell-based or functional assay; remark: listed apart in the source
human FLT3 on AML5 cells [5] = target: T1, human FLT3 on AML5 cells; experiment: cell-based or functional assay; remark: listed apart in the source
[6] = target: T2, recombinant human C1q protein (Fitzgerald) (human, UniProt P02745 23-245; P02746 28-253; P02747 29-245, limits assumed); experiment: ELISA; test protein immobilised in serial dilution, recombinant human C1q added, anti-C1q-HRP
T2 construct: also called human recombinant complement protein, C1q
T2 sequence (P02745 23-245 limits assumed, chain 1 of 3): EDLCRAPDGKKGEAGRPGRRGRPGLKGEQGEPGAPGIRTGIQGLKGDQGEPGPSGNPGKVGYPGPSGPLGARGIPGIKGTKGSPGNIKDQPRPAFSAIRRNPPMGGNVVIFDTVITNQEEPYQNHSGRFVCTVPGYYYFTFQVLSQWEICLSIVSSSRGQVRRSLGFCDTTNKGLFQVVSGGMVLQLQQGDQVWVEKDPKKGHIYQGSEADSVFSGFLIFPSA
T2 sequence (P02746 28-253 limits assumed, chain 2 of 3): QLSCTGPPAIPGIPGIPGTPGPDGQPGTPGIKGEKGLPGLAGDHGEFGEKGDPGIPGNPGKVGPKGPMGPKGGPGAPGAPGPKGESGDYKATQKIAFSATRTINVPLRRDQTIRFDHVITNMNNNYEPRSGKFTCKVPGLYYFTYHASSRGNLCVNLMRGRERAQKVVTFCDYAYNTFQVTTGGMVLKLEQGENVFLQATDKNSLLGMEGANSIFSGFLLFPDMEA
T2 sequence (P02747 29-245 limits assumed, chain 3 of 3): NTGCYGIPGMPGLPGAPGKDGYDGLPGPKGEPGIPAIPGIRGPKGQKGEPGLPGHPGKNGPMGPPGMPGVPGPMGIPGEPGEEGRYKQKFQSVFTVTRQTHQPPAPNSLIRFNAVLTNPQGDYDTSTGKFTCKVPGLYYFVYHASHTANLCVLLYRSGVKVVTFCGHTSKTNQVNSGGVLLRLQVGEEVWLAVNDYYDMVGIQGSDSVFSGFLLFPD

[7] = target: T2, recombinant human C1q protein …; experiment: as above; remark: listed apart in the source

Binder | EC50 (nM), Inducing Proliferation of AML5 Cells (human FLT3 on AML5 cells [1]) | EC50 (nM), Inducing Proliferation of AML5 Cells (human FLT3 on AML5 cells [2]) | EC50 (nM), Inducing Proliferation of AML5 Cells (human FLT3 on AML5 cells [3]) | EC50 (nM), AML5 Proliferation Assay (human FLT3 on AML5 cells [4]) | EC50 (nM), AML5 Proliferation Assay (human FLT3 on AML5 cells [5]) | binding result [6] | binding result [7]
human FLT3-ligand human hingeless IgG1 fusion protein (SEQ ID NO:1) (Fc fusion, Made in Expi293 or ExpiCHO; also called FLT3L ECD-hingeless hG1; hFLT3L ECD) TQDCSFQHSPISSDFAVKIRELSDYLLQDYPVTVASNLQDEELCGGLWRLVLAQRWMERLKTVAGSKMQGLLERVNTEIHFVTKCAFQPPPSCLRFVQTNISRLLQETSEQLVALKPWITRQNFSRCLELQCQPDSSTLPPPWSPRPLEATAPTAPQGGPSVFLFPPKPKDTLMISRTPEVTCVVVDVSHEDPEVKFNWYVDGVEVHNAKTKPREEQYNSTYRVVSVLTVLHQDWLNGKEYKCKVSNKALPAPIEKTISKAKGQPREPQVYTLPPSREEMTKNQVSLTCLVKGFYPSDIAVEWESNGQPENNYKTTPPVLDSDGSFFLYSKLTVDKSRWQQGNVFSCSVMHEALHNHYTQKSLSLSPGK | 0.04 nM | 0.034 nM | 0.078 nM | 0.08 nM | 0.05 nM | no binding (tested: 94 nM (top of the titration)) | –
human FLT3-ligand (S128A/S151A) human hingeless IgG1 fusion protein (SEQ ID NO:5) (Fc fusion, also called Aglyco-FLT3L ECD (S128A/S151A) hingeless hG1) TQDCSFQHSPISSDFAVKIRELSDYLLQDYPVTVASNLQDEELCGGLWRLVLAQRWMERLKTVAGSKMQGLLERVNTEIHFVTKCAFQPPPSCLRFVQTNIARLLQETSEQLVALKPWITRQNFARCLELQCQPDSSTLPPPWSPRPLEATAPTAPQGGPSVFLFPPKPKDTLMISRTPEVTCVVVDVSHEDPEVKFNWYVDGVEVHNAKTKPREEQYNSTYRVVSVLTVLHQDWLNGKEYKCKVSNKALPAPIEKTISKAKGQPREPQVYTLPPSREEMTKNQVSLTCLVKGFYPSDIAVEWESNGQPENNYKTTPPVLDSDGSFFLYSKLTVDKSRWQQGNVFSCSVMHEALHNHYTQKSLSLSPGK | – | – | – | 0.078 nM | – | no binding (tested: 94 nM (top of the titration)) | –
human FLT3-ligand human hingeless IgG1 (M252Y/S254T/T256E) fusion protein (SEQ ID NO:9) (Fc fusion, also called FLT3L ECD-hingeless hG1 (M252Y/S254T/T256E)) TQDCSFQHSPISSDFAVKIRELSDYLLQDYPVTVASNLQDEELCGGLWRLVLAQRWMERLKTVAGSKMQGLLERVNTEIHFVTKCAFQPPPSCLRFVQTNISRLLQETSEQLVALKPWITRQNFSRCLELQCQPDSSTLPPPWSPRPLEATAPTAPQGGPSVFLFPPKPKDTLYITREPEVTCVVVDVSHEDPEVKFNWYVDGVEVHNAKTKPREEQYNSTYRVVSVLTVLHQDWLNGKEYKCKVSNKALPAPIEKTISKAKGQPREPQVYTLPPSREEMTKNQVSLTCLVKGFYPSDIAVEWESNGQPENNYKTTPPVLDSDGSFFLYSKLTVDKSRWQQGNVFSCSVMHEALHNHYTQKSLSLSPGK | – | – | – | – | 0.037 nM | – | no binding (tested: 94 nM (top of the titration))
human FLT3-ligand (Δ10 amino acid) human hingeless IgG1 fusion protein (SEQ ID NO:7) (Fc fusion) TQDCSFQHSPISSDFAVKIRELSDYLLQDYPVTVASNLQDEELCGGLWRLVLAQRWMERLKTVAGSKMQGLLERVNTEIHFVTKCAFQPPPSCLRFVQTNISRLLQETSEQLVALKPWITRQNFSRCLELQCQPDSSTLPPPWSPRPGGPSVFLFPPKPKDTLMISRTPEVTCVVVDVSHEDPEVKFNWYVDGVEVHNAKTKPREEQYNSTYRVVSVLTVLHQDWLNGKEYKCKVSNKALPAPIEKTISKAKGQPREPQVYTLPPSREEMTKNQVSLTCLVKGFYPSDIAVEWESNGQPENNYKTTPPVLDSDGSFFLYSKLTVDKSRWQQGNVFSCSVMHEALHNHYTQKSLSLSPGK | – | – | – | 0.071 nM | – | no binding (tested: 94 nM (top of the titration)) | –
human FLT3-ligand (Δ5 amino acid) human IgG4 (S228P/F234A/L235A/M252Y/S254T/T256E) fusion protein (SEQ ID NO:14) (Fc fusion, also called FLT3L ECD (Δ C-term 5aa (PTAPQ))-hG4 (S228P/F234A/L235A/M252Y/S254T/T256E)) TQDCSFQHSPISSDFAVKIRELSDYLLQDYPVTVASNLQDEELCGGLWRLVLAQRWMERLKTVAGSKMQGLLERVNTEIHFVTKCAFQPPPSCLRFVQTNISRLLQETSEQLVALKPWITRQNFSRCLELQCQPDSSTLPPPWSPRPLEATAESKYGPPCPPCPAPEAAGGPSVFLFPPKPKDTLYITREPEVTCVVVDVSQEDPEVQFNWYVDGVEVHNAKTKPREEQFNSTYRVVSVLTVLHQDWLNGKEYKCKVSNKGLPSSIEKTISKAKGQPREPQVYTLPPSQEEMTKNQVSLTCLVKGFYPSDIAVEWESNGQPENNYKTTPPVLDSDGSFFLYSRLTVDKSRWQEGNVFSCSVMHEALHNHYTQKSLSLSLGK | – | – | – | – | 0.046 nM | – | no binding (tested: 94 nM (top of the titration))
human FLT3-ligand (Δ5 amino acid) human hingeless IgG1 fusion protein (SEQ ID NO:2) (Fc fusion, also called FLT3L ECD (Δ C-term 5aa (PTAPQ))-hingeless hG1) TQDCSFQHSPISSDFAVKIRELSDYLLQDYPVTVASNLQDEELCGGLWRLVLAQRWMERLKTVAGSKMQGLLERVNTEIHFVTKCAFQPPPSCLRFVQTNISRLLQETSEQLVALKPWITRQNFSRCLELQCQPDSSTLPPPWSPRPLEATAGGPSVFLFPPKPKDTLMISRTPEVTCVVVDVSHEDPEVKFNWYVDGVEVHNAKTKPREEQYNSTYRVVSVLTVLHQDWLNGKEYKCKVSNKALPAPIEKTISKAKGQPREPQVYTLPPSREEMTKNQVSLTCLVKGFYPSDIAVEWESNGQPENNYKTTPPVLDSDGSFFLYSKLTVDKSRWQQGNVFSCSVMHEALHNHYTQKSLSLSPGK | – | – | – | 0.083 nM | – | no binding (tested: 94 nM (top of the titration)) | –
